Measured values taken from the supplement of paper PMC11246515.
± gives the standard deviation of the averaged measurements.

Experiment: total protein half-life in vivo (active degradation + dilution); higher = more stable protein
[1] = E. coli NCM3722 delta-clpP delta-lon delta-hslV, growth: N-lim chemostat, doubling time 6 h
[2] = E. coli NCM3722 delta-clpP, growth: N-lim chemostat, doubling time 6 h
[3] = E. coli NCM3722 delta-hslV, growth: N-lim chemostat, doubling time 6 h
[4] = E. coli NCM3722 delta-lon, growth: N-lim chemostat, doubling time 6 h
[5] = E. coli NCM3722 delta-smpB, growth: N-lim chemostat, doubling time 6 h
[6] = wild type E. coli NCM3722, growth: C-lim chemostat, doubling time 6 h
[7] = wild type E. coli NCM3722, growth: C-lim chemostat, doubling time 12 h
[8] = wild type E. coli NCM3722, growth: N-lim chemostat, doubling time 6 h
[9] = wild type E. coli NCM3722, growth: N-lim chemostat, doubling time 12 h
[10] = wild type E. coli NCM3722, growth: P-lim chemostat, doubling time 6 h
[11] = wild type E. coli NCM3722, growth: P-lim chemostat, doubling time 12 h
[12] = wild type E. coli NCM3722, growth: C-lim chemostat, doubling time 3 h

Sequence	total protein half-life in vivo [1] [h]	total protein half-life in vivo [2] [h]	total protein half-life in vivo [3] [h]	total protein half-life in vivo [4] [h]	total protein half-life in vivo [5] [h]	total protein half-life in vivo [6] [h]	total protein half-life in vivo [7] [h]	total protein half-life in vivo [8] [h]	total protein half-life in vivo [9] [h]	total protein half-life in vivo [10] [h]	total protein half-life in vivo [11] [h]	total protein half-life in vivo [12] [h]
MAAINTKVKKAVIPVAGLGTRMLPATKAIPKEMLPLVDKPLIQYVVNECIAAGITEIVLVTHSSKNSIENHFDTSFELEAMLEKRVKRQLLDEVQSICPPHVTIMQVRQGLAKGLGHAVLCAHPVVGDEPVAVILPDVILDEYESDLSQDNLAEMIRRFDETGHSQIMVEPVADVTAYGVVDCKGVELAPGESVPMVGVVEKPKADVAPSNLAIVGRYVLSADIWPLLAKTPPGAGDEIQLTDAIDMLIEKETVEAYHMKGKSHDCGNKLGYMQAFVEYGIRHNTLGTEFKAWLEEEMGIKK [P0AEP3]	4.77 ± 0.41	4.87 ± 0.81	4.91 ± 0.62	5.41 ± 0.14	4.728 ± 0.0092	5.71 ± 0.23	10.8 ± 1.1	4.65 ± 0.13	7.63 ± 0.25	5.72 ± 0.074	11.6 ± 0.14	–
MAANAFVRARIDEDLKNQAADVLAGMGLTISDLVRITLTKVAREKALPFDLREPNQLTIQSIKNSEAGIDVHKAKDADDLFDKLGI	2.38 ± 0.28	–	–	–	–	0.925 ± 0.13	0.789	0.421	4.6	0.432	1.38	–
MAAVNLRHIEIFHAVMTAGSLTEAAHLLHTSQPTVSRELARFEKVIGLKLFERVRGRLHPTVQGLRLFEEVQRSWYGLDRIVSAAESLREFRQGELSIACLPVFSQSFLPQLLQPFLARYPDVSLNIVPQESPLLEEWLSAQRHDLGLTETLHTPAGTERTELLSLDEVCVLPPGHPLAVKKVLTPDDFQGENYISLSRTDSYRQLLDQLFTEHQVKRRMIVETHSAASVCAMVRAGVGISVVNPLTALDYAASGLVVRRFSIAVPFTVSLIRPLHRPSSALVQAFSGHLQAGLPKLVTSLDAILSSATTA	7.04 ± 0.23	4.89	–	–	5.18 ± 2.1	6.28	11.805 ± 0.0096	5.91 ± 0.071	> 16	–	13.1 ± 0.34	3.2 ± 0.26
MADITLISGSTLGGAEYVAEHLAEKLEEAGFTTETLHGPLLEDLPASGIWLVISSTHGAGDIPDNLSPFYEALQEQKPDLSAVRFGAIGIGSREYDTFCGAIDKLEAELKNSGAKQTGETLKINILDHDIPEDPAEEWLGSWVNLLK	3.22 ± 0.1	2.99	2.93 ± 0.18	3.47 ± 0.17	2.78 ± 0.15	4.66 ± 0.56	9.28 ± 2	2.67 ± 0.13	3.68 ± 0.24	5.07 ± 0.09	9.52 ± 0.099	2.86 ± 0.48
MADKELKFLVVDDFSTMRRIVRNLLKELGFNNVEEAEDGVDALNKLQAGGYGFVISDWNMPNMDGLELLKTIRADGAMSALPVLMVTAEAKKENIIAAAQAGASGYVVKPFTAATLEEKLNKIFEKLGM [P0AE67]	4.52 ± 0.43	4.01	3.69 ± 0.95	5.08 ± 0.6	4.41	4.08 ± 0.41	5.96 ± 0.14	3.82 ± 0.84	5.61 ± 0.14	3.91	6.33 ± 0.44	2.33 ± 0.22
MADTKAKLTLNGDTAVELDVLKGTLGQDVIDIRTLGSKGVFTFDPGFTSTASCESKITFIDGDEGILLHRGFPIDQLATDSNYLEVCYILLNGEKPTQEQYDEFKTTVTRHTMIHEQITRLFHAFRRDSHPMAVMCGITGALAAFYHDSLDVNNPRHREIAAFRLLSKMPTMAAMCYKYSIGQPFVYPRNDLSYAGNFLNMMFSTPCEPYEVNPILERAMDRILILHADHEQNASTSTVRTAGSSGANPFACIAAGIASLWGPAHGGANEAALKMLEEISSVKHIPEFVRRAKDKNDSFRLMGFGHRVYKNYDPRATVMRETCHEVLKELGTKDDLLEVAMELENIALNDPYFIEKKLYPNVDFYSGIILKAMGIPSSMFTVIFAMARTVGWIAHWSEMHSDGMKIARPRQLYTGYEKRDFKSDIKR [P0ABH7]	4.1 ± 0.75	3.04 ± 0.12	2.942 ± 0.0099	3.4 ± 0.35	3.08 ± 0.34	5.24 ± 0.23	9.82 ± 1.7	2.94 ± 0.063	4.55 ± 0.57	5.57 ± 0.27	10.5 ± 0.35	3.18 ± 0.15
MADVHDKATRSKNMRAIATRDTAIEKRLASLLTGQGLAFRVQDASLPGRPDFVVDEYRCVIFTHGCFWHHHHCYLFKVPATRTEFWLEKIGKNVERDRRDISRLQELGWRVLIVWECALRGREKLTDEALTERLEEWICGEGASAQIDTQGIHLLA	5.56	4.58 ± 0.72	3.63 ± 0.22	3.67	4.35 ± 1.4	4.16	8.92	3.98 ± 0.43	5.45 ± 0.16	3.9 ± 0.41	9.27 ± 3.3	–
MADYQGKNVVIIGLGLTGLSCVDFFLARGVTPRVMDTRMTPPGLDKLPEAVERHTGSLNDEWLMAADLIVASPGIALAHPSLSAAADAGIEIVGDIELFCREAQAPIVAITGSNGKSTVTTLVGEMAKAAGVNVGVGGNIGLPALMLLDDECELYVLELSSFQLETTSSLQAVAATILNVTEDHMDRYPFGLQQYRAAKLRIYENAKVCVVNADDALTMPIRGADERCVSFGVNMGDYHLNHQQGETWLRVKGEKVLNVKEMKLSGQHNYTNALAALALADAAGLPRASSLKALTTFTGLPHRFEVVLEHNGVRWINDSKATNVGSTEAALNGLHVDGTLHLLLGGDGKSADFSPLARYLNGDNVRLYCFGRDGAQLAALRPEVAEQTETMEQAMRLLAPRVQPGDMVLLSPACASLDQFKNFEQRGNEFARLAKELG	5.112 ± 0.021	4.445 ± 0.041	4.9241 ± 0.00076	5.5 ± 0.35	4.73 ± 0.097	5.38 ± 0.69	12.18 ± 0.043	4.57 ± 0.075	9.03 ± 0.63	5.815 ± 0.041	–	–
MAEGKAMSEFLPFSRPAMGVEELAAVKEVLESGWITTGPKNQALEQAFCQLTGNQHAIAVSSATAGMHITLMALKIGKGDEVITPSLTWVSTLNMISLLGATPVMVDVDRDTLMVTPEAIESAITPRTKAIIPVHYAGAPADIDAIRAIGERYGIAVIEDAAHAVGTYYKGRHIGAKGTAIFSFHAIKNITCAEGGLIVTDNENLARQLRMLKFHGLGVDAYDRQTWGRAPQAEVLTPGYKYNLTDINAAIALTQLVKLEHLNTRRREIAQQYQQALAALPFQPLSLPAWPHVHAWHLFIIRVDEQRCGISRDALMEALKERGIGTGLHFRAAHTQKYYRERFPTLSLPNTEWNSERICSLPLFPDMTTADADHVITALQQLAGQ	4.86 ± 0.74	3.7 ± 0.29	3.72 ± 0.19	4.52 ± 0.06	3.93 ± 0.41	4.78 ± 0.6	9.35 ± 0.95	3.78 ± 0.055	6.38 ± 0.47	5.53 ± 0.55	11.7 ± 0.21	3.52 ± 0.55
MAEHLMSDVPFWQSKTLDEMSDAEWESLCDGCGQCCLHKLMDEDTDEIYFTNVACRQLNIKTCQCRNYERRFEFEPDCIKLTRENLPTFEWLPMTCAYRLLAEGKDLPAWHPLLTGSKAAMHGERISVRHIAVKESEVIDWQDHILNKPDWAQ [P0A8L5]	3.88 ± 0.37	–	–	–	–	1.17	–	–	–	–	1.97	–
MAENQSTVENAKEKLDRWLKDGITTPGGKLPSERELGELLGIKRMTLRQALLNLEAESKIFRKDRKGWFVTQPRFNYSPELSASFQRAAIEQGREPSWGFTEKNRTSDIPETLAPLIAVTPSTELYRITGWGALEGHKVFYHETYINPEVAPGFIEQLENHSFSAVWEKCYQKETVVKKLIFKPVRMPGDISKYLGGSAGMPAILIEKHRADQQGNIVQIDIEYWRFEAVDLIINL [P0ACM9]	6.16 ± 0.15	5.99 ± 0.32	5.13 ± 0.17	–	4.95	–	13.2 ± 3.2	5.84 ± 0.19	9.06 ± 1	5.01 ± 1.8	9.28	–
MAEVTQLKRYDARPINWGKWFLIGIGMLVSAFILLVPMIYIFVQAFSKGLMPVLQNLADPDMLHAIWLTVMIALIAVPVNLVFGILLAWLVTRFNFPGRQLLLTLLDIPFAVSPVVAGLVYLLFYGSNGPLGGWLDEHNLQIMFSWPGMVLVTIFVTCPFVVRELVPVMLSQGSQEDEAAILLGASGWQMFRRVTLPNIRWALLYGVVLTNARAIGEFGAVSVVSGSIRGETLSLPLQIELLEQDYNTVGSFTAAALLTLMAIITLFLKSMLQWRLENQEKRAQQEEHHEH [P0AEB0]	4.83	5.5	4.23	–	4.22	4.97 ± 1.4	–	4.59	4.73	4.26	10.7 ± 2	2.64
MAFKIWQIGLHLQQQEAVAVAIVRGAKECFLQRWWRLPLENDIIKDGRIVDAQQLAKTLLPWSRELPQRHHIMLAFPASRTLQRSFPRPSMSLGEREQTAWLSGTMARELDMDPDSLRFDYSEDSLSPAYNVTAAQSKELATLLTLAERLRVHVSAITPDASALQRFLPFLPSHQQCLAWRDNEQWLWATRYSWGRKLAVGMTSAKELAAALSVDPESVAICGEGGFDPWEAVSVRQPPLPPPGGDFAIALGLALGKAY	4.83	3.81	2.84	–	2.82 ± 0.24	–	11.7 ± 1.8	–	–	3.857 ± 0.0092	8.02	–
MAFQVKIHQIRAFVEVARQGSIRGASRMLNMSQPALSKSIQELEEGLAAQLFFRRSKGVTLTDAGESFYQHASLILEELRAAQEDIRQRQGQLAGQINIGMGASISRSLMPAVISRFHQQHPQVKVRIMEGQLVSMINELRQGELDFTINTYYQGPYDHEFTFEKLLEKQFAIFCRPGHPAIGARSIKQLLDYSWTMPTPHGSYYKQLSELLDDQAQTPQVGVVCETFSACISLVAKSDFLSKLPEEMGCDPLHGQGLVMLPVSEILPKAAYYLIQRRDSRQTPLTASLITQFRRECGYLQS	–	–	–	2.39 ± 0.088	–	–	–	0.867	0.857	–	–	–
MAFVSEREIVRKIFSKKIDFTILAFFYISSIFFLLCSGVLFQYFTAAFTKGNCYECSMKLDYIKQFYFSLETAWYLISAVAVFIASVFIQHRIKAYLTLLAITWIVLTITDVALIHALDNIAMNNILLNILYNLFGAILLSLFMCLSNSLLFHLNKIKHIPMILSAMIPLVSAIIIAILITAVIYLLFARQAVEIEMDISEGSDIAYVGVKDNEESFGFLNDKKTDTPTYLDVIKNGSLIYNDTQGLSGADIYIVSGCYALPDLLRNVPLDAKKSFLNVKKLEITQKLPMMGFIQGESADVMPKAASRLSLSKQDDKFMLASSVTDSQIKFKSNNAQLMVAFAFMPITTNGILHDYTYDIIINDKKYKIENHVAPLSRLDKNKKMKCEYQQISDLTNTYNINANYLTGFLLVLKPDDIINYNNSPSVLLKTDFAFYKKTYQKLDKIYDDISNGKLSSLRATGISQFSINGKHLSLRPESEIIISEGSLYGLVNKSKKIKIYGTADLVFVDNKIMNLRKITYLQSKLEIFGSSIMDILKYIFGLGLLAISIKFIHSYFKNDVNENLFL	–	–	–	–	–	–	–	2.06	–	–	2.3 ± 0.71	–
MAGINLNKKLWRIPQQGMVRGVCAGIANYFDVPVKLVRILVVLSIFFGLALFTLVAYIILSFALDPMPDNMAFGEQLPSSSELLDEVDRELAASETRLREMERYVTSDTFTLRSRFRQL [P0AFN2]	5.469 ± 0.044	> 8	5.48 ± 0.47	–	4.53 ± 0.38	3.81 ± 0.91	6.7 ± 3.6	4.862 ± 0.037	9.24 ± 0.17	7.55	10 ± 0.79	2.498 ± 0.015
MAGLKLQAVTKSWDGKTQVIKPLTLDVADGEFIVMVGPSGCGKSTLLRMVAGLERVTEGDIWINDQRVTEMEPKDRGIAMVFQNYALYPHMSVEENMAWGLKIRGMGKQQIAERVKEAARILELDGLLKRRPRELSGGQRQRVAMGRAIVRDPAVFLFDEPLSNLDAKLRVQMRLELQQLHRRLKTTSLYVTHDQVEAMTLAQRVMVMNGGVAEQIGTPVEVYEKPASLFVASFIGSPAMNLLTGRVNNEGTHFELDGGIELPLNGGYRQYAGRKMTLGIRPEHIALSSQAEGGVPMVMDTLEILGADNLAHGRWGEQKLVVRLAHQERPTAGSTLWLHLAENQLHLFDGETGQRV	6.33 ± 0.31	6 ± 0.91	5.83 ± 0.11	4.99 ± 0.61	5.45 ± 0.75	5.54 ± 0.4	12 ± 0.92	5.14 ± 0.41	–	6.25 ± 0.35	13.2 ± 0.23	3.13 ± 0.15
